The supplement of paper PMC7877785
± gives the uncertainty stated by the source.

Assay: self-splicing fitness, log relative to wild type (ln ratio); higher = more splicing; Tetrahymena group I intron in knt gene, E. coli kanamycin selection, DiMSum; sequences stand for … in CUCUCU…GGAGGGAAAAGUUAUCAGGCAUGCACCUGGUAGCUAGUCUUUAAACCAAUAGAUUGCAUCGGUUUAAAAGGCAAGACCGUCAAAUUGCGGGAAAGGGGUCAACAGCCGUUCAGUACCAAGUCUCAGGGGAAACUUUGAGAUGGCCUUGCAAAGGGUAUGGUAAUAAGCUGACGGACAUGGUCCUAACCACGCAGCCAAGUCCUAAGUCAACAGAUCUUCUGUUGAUAUGGAUGCAGUUCACAGACUAAAUGUCGGUCGGGGAAGAUGUAUUCUUCUCAUAAGAUAUAGUCGGACCUCUCCUUAAUGGGAGCUAGCGGAUGAAGUGAUGCAACACUGGAGCCGCUGGGAACUAAUUUGUAUGCGAAAGUAUAUUGAUUAGUUUUGGAGUACUCGUGGUCG
Outline: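 Library with all eight P1ex-region intron nucleotides randomised, intron inside the knt kanamycin-resistance gene on pET-22b(+), in E. coli BL21(DE3). Cells grew overnight at 37°C or 30°C on LB agar with or without 25 μg/mL kanamycin (plus 100 μg/mL carbenicillin, 50 μM IPTG, 0.2% rhamnose), in six replicate transformations. Pooled colonies were amplicon-sequenced on Illumina HiSeq 2500. DiMSum fitness is the error-weighted combination of wild-type-normalised replicate fold changes, kanamycin versus none.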

Sequence | self-splicing fitness (ln) (30 °C) | self-splicing fitness (ln) (37 °C)
CUGCAGCAAUAUUACGUGCA | -2.38 ± 0.13 | -0.522 ± 0.1
UAUCAGCAAUAUUACGCAUG | -1.1 ± 0.082 | 0.181 ± 0.099
AGAAAGCAAUAUUACGUUCU | -2.72 ± 0.15 | -1.41 ± 0.14
GGGAAGCAAUAUUACGCGCA | -0.0561 ± 0.11 | -0.304 ± 0.13
GAGAAGCAAUAUUACGACAA | -0.787 ± 0.1 | -0.365 ± 0.12
ACUAAGCAAUAUUACGUCCA | -1.54 ± 0.12 | -1.22 ± 0.16
UUGGAGCAAUAUUACGGUAU | -2.95 ± 0.26 | -1.98 ± 0.28
CAAUAGCAAUAUUACGCUUG | -2.63 ± 0.14 | -2.01 ± 0.16
AAGUAGCAAUAUUACGAGAU | -2.66 ± 0.16 | -1.34 ± 0.15
GAUAAGCAAUAUUACGGAUA | -1.73 ± 0.12 | -1.31 ± 0.15
CCGGAGCAAUAUUACGGCCU | -4.41 ± 0.28 | -3.79 ± 0.23
GGAAAGCAAUAUUACGGGAG | -3.54 ± 0.28 | -1.83 ± 0.19
CCCCAGCAAUAUUACGAAUA | – | -1.41 ± 0.21
AUGUAGCAAUAUUACGUCUC | – | -2.4 ± 0.3
ACUAAGCAAUAUUACGGCGG | -0.98 ± 0.07 | -0.452 ± 0.1
UGCUAGCAAUAUUACGGUUU | -1.27 ± 0.062 | -0.216 ± 0.073
ACCCAGCAAUAUUACGCAAC | -2.62 ± 0.12 | -0.73 ± 0.11
UACAAGCAAUAUUACGAGGG | -2.8 ± 0.14 | -1.47 ± 0.14
CAUGAGCAAUAUUACGCUUG | -2.74 ± 0.14 | -2.97 ± 0.21
CAAAAGCAAUAUUACGAGGC | -4.77 ± 0.39 | -2.34 ± 0.18
AGACAGCAAUAUUACGUCUU | -4.54 ± 0.25 | -2.74 ± 0.18
CAAUAGCAAUAUUACGACCG | -0.173 ± 0.12 | 0.201 ± 0.18
AAUGAGCAAUAUUACGAAGA | -2.8 ± 0.19 | -2.91 ± 0.26
ACGCAGCAAUAUUACGUGCA | -1.58 ± 0.076 | -0.0655 ± 0.083
GCCUAGCAAUAUUACGAGGC | -4.1 ± 0.36 | -1.77 ± 0.26

Sequence | self-splicing fitness (ln) (30 °C) | self-splicing fitness (ln) (37 °C)
GCGAAGCAAUAUUACGCUAG | -3.28 ± 0.26 | -0.964 ± 0.32
UCCAAGCAAUAUUACGAAUA | -2.4 ± 0.16 | -1.13 ± 0.097
GAGCAGCAAUAUUACGUGGC | -3.71 ± 0.27 | -1.63 ± 0.14
UCCAAGCAAUAUUACGUCGC | -3.47 ± 0.21 | -3.12 ± 0.28
UCACAGCAAUAUUACGGAAG | -3.85 ± 0.23 | -2.3 ± 0.17
UGGAAGCAAUAUUACGAAAA | -1.93 ± 0.22 | -1.13 ± 0.19
UGACAGCAAUAUUACGGAAG | -2.29 ± 0.11 | -1.19 ± 0.12
AUUGAGCAAUAUUACGUAAA | -1.7 ± 0.15 | -2.91 ± 0.34
CCAGAGCAAUAUUACGGAUC | -1.77 ± 0.32 | –
GAGAAGCAAUAUUACGAAAU | -3.17 ± 0.23 | -1.63 ± 0.19
GUCCAGCAAUAUUACGUAUG | -2.76 ± 0.1 | -1.06 ± 0.11
UUUGAGCAAUAUUACGUGUA | -3.76 ± 0.35 | -2.78 ± 0.28
CUGUAGCAAUAUUACGGAGU | -3.65 ± 0.23 | -2.74 ± 0.24
AGUCAGCAAUAUUACGUCAU | -0.181 ± 0.072 | -0.133 ± 0.09
UCGAAGCAAUAUUACGCUUU | -4.08 ± 0.3 | -2.94 ± 0.35
CGCAAGCAAUAUUACGCUAU | -3.23 ± 0.17 | -3.15 ± 0.22
CUAAAGCAAUAUUACGCGUA | -3.35 ± 0.18 | -2.63 ± 0.21
GAAUAGCAAUAUUACGCUCC | – | -1.37 ± 0.33
AAUUAGCAAUAUUACGGAAG | – | -0.915 ± 0.42
AGAUAGCAAUAUUACGCAAU | -1.14 ± 0.1 | -1.34 ± 0.15
GAAAAGCAAUAUUACGUUAA | -2.85 ± 0.15 | -1.78 ± 0.13
UGGGAGCAAUAUUACGGGAG | -2.83 ± 0.25 | -2.94 ± 0.43
GCGUAGCAAUAUUACGCAAC | -3.87 ± 0.18 | -2.33 ± 0.17
UAGGAGCAAUAUUACGGUGG | -2.79 ± 0.21 | -0.497 ± 0.17
